In IntAct's records for PubMed 26437117:

B1: Synaptotagmin-1 (Rattus norvegicus (Rat)), P21707 (parent)
chain: MVSASHPEALAAPVTTVATLVPHNATEPASPGEGKEDAFSKLKQKFMNELHKIPLPPWALIAIAIVAVLLVVTCCFCVCKKCLFKKKNKKKGKEKGGKNAINMKDVKDLGKTMKDQALKDDDAETGLTDGEEKEEPKEEEKLGKLQYSLDYDFQNNQLLVGIIQAAELPALDMGGTSDPYVKVFLLPDKKKKFETKVHRKTLNPVFNEQFTFKVPYSELGGKTLVMAVYDFDRFSKHDIIGEFKVPMNTVDFGHVTEEWRDLQSAEKEEQEKLGDICFSLRYVPTAGKLTVVILEAKNLKKMDVGGLSDPYVKIHLMQNGKRLKKKKTTIKKNTLNPYYNESFSFEVPFEQIQKVQVVVTVLDYDKIGKNDAIGKVFVGYNSTGAELRHWSDMLANPRRPIAQWHTLQVEEEVDAMLAVKK

Variants of: B1
Conditions: with stx1a_mouse Stx1a

| Variant | effect of a mutation on the interaction |
| --- | --- |
| D178A;D230A;D232A;D309A;D363A;D365A | decreasing interaction strength |
